Test results as given in US20190336574A1 (TRUSTEES OF PRINCETON UNIVERSITY, published 2019).

Legend:
Experiment in all cases: co-IP (anti-Myc) from HEK293T lysates, western blot
[1] = biological target: T1, HA-SND1 R255E, full-length human (human, UniProt Q7KZF4 1-910)
T1 construct: Full-length, HA-tagged
T1 sequence: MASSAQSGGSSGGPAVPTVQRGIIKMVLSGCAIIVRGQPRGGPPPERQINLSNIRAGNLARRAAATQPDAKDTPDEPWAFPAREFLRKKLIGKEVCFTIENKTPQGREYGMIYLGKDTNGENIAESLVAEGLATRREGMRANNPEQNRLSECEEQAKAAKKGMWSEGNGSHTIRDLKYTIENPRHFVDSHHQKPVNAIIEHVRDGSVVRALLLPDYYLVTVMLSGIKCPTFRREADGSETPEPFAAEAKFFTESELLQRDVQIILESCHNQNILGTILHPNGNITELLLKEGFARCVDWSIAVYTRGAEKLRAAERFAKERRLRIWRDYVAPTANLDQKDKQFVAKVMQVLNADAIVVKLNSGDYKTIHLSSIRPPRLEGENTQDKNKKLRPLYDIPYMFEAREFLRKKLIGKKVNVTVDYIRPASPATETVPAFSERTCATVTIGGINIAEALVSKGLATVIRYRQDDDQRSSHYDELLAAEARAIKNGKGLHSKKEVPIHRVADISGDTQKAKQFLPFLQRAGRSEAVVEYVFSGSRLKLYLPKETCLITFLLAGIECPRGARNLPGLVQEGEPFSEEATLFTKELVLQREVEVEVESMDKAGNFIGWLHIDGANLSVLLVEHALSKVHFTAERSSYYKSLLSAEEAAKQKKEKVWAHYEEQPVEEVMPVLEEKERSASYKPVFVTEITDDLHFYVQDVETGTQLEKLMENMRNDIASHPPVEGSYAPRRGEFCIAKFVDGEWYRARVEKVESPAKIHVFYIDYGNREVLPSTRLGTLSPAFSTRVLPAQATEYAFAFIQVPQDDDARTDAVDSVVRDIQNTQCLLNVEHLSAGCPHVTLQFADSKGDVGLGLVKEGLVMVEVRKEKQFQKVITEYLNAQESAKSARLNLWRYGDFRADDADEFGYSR

[2] = biological target: T2, HA-SND1 F250A, full-length human (human, UniProt Q7KZF4 1-910)
T2 construct: Full-length, HA-tagged
T2 sequence: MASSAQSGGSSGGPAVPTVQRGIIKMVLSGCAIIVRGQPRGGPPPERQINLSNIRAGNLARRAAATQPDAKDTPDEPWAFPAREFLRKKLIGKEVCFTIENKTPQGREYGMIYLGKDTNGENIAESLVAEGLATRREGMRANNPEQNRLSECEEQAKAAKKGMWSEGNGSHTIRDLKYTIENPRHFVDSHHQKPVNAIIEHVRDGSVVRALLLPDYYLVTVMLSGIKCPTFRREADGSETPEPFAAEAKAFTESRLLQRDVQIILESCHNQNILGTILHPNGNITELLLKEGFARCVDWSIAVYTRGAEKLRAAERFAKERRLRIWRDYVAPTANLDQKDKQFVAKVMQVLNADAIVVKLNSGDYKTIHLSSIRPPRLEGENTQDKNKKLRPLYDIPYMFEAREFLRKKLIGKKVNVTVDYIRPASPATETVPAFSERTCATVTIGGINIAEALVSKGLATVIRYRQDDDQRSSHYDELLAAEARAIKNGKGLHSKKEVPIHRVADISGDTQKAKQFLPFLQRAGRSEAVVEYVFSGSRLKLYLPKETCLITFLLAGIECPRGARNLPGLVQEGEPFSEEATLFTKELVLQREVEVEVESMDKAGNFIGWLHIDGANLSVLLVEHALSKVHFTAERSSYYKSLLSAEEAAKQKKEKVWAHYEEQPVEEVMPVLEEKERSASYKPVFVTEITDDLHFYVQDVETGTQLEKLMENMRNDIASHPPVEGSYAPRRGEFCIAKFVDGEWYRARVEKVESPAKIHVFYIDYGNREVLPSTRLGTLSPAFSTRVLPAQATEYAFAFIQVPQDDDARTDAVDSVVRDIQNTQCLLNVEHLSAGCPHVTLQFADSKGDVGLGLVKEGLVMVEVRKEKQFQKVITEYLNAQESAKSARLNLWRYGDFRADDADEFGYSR

[3] = biological target: T3, HA-SND1 Δ39-43, full-length human (human, UniProt Q7KZF4 1-910)
T3 construct: also called 439-43
T3 sequence: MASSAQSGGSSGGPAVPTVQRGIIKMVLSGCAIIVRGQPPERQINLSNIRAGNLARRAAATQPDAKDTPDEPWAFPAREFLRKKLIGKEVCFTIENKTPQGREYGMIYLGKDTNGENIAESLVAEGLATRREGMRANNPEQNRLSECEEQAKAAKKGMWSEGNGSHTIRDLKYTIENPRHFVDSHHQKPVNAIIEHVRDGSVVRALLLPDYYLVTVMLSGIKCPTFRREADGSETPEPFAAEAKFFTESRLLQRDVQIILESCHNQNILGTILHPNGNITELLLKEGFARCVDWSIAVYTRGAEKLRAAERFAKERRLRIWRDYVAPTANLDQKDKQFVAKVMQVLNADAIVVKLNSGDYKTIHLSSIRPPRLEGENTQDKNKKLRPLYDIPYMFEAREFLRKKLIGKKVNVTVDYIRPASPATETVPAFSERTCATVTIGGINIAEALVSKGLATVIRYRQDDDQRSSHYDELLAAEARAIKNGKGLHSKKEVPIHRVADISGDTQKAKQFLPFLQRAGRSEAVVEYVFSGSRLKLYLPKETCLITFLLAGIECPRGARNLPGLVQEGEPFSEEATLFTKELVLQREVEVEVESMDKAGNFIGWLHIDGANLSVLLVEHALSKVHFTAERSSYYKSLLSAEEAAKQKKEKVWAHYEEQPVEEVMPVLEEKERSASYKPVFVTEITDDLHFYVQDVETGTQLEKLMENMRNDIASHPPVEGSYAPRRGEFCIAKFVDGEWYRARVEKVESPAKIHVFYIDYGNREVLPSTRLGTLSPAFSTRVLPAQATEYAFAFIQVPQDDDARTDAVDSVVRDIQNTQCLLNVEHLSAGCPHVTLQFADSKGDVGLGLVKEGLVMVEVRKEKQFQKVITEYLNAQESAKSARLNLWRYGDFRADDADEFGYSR

Measured: binding result

B1: Myc-MTDH, full-length human, wild type (other)
chain: MAARSWQDELAQQAEEGSARLREMLSVGLGFLRTELGLDLGLEPKRYPGWVILVGTGALGLLLLFLLGYGWAAACAGSRKKRRSPPRKREEAAAVPAAAPDDLALLKNLRSEEQKKKNRKKLSEKPKPNGRTVEVAEGEAVRTPQSVTAKQPPEIDKKNEKSKKNKKKSKSDAKAVQNSSRHDGKEVDEGAWETKISHREKRQQRKRDKVLTDSGSLDSTIPGIENTITVTTEQLTTASFPVGSKKNKGDSHLNVQVSNFKSGKGDSTLQVSSGLNENLTVNGGGWNEKSVKLSSQISAGEEKWNSVSPASAGKRKAEPSAWSQDTGDANTNGKDWGRSWSDRSIFSGIGSTAEPVSQSTTSDYQWDVSRNQPYIDDEWSGLNGLSSADPNSDWNAPAEEWGNWVDEERASLLKSQEPIPDDQKVSDDDKEKGEGALPTGKSKKKKKKKKKQGEDNSTAQDTEELEKEIREDLPVNTSKTRPKQEKAFSLKTISTSDPAEVLVKNSQPIKTLPPATSTEPSVILSKSDSDKSSSQVPPILQETDKSKSNTKQNSVPPSQTKSETSWESPKQIKKKKKARRET
notes: Full-length, Myc-tagged; Expressed in HEK293T cells, tested in lysate; also called Myc-tagged MTDH; WT Myc-MTDH
no binding: [1] | [2] | [3]
